{
  "source": "patent US20260150817A1",
  "key": {"[1]": {"biological_target": "SARS-Cov2 Spike Active Trimer SAT (R&D Systems; Catalog No. 10549-CV) (SARS-CoV-2) (UniProt P0DTC2)"}, "[2]": {"biological_target": "SARS-Cov2 Spike Active Trimer SAT (R&D Systems; Catalog No. 10549-CV) (SARS-CoV-2) (UniProt P0DTC2)", "remark": "listed apart in the source"}, "[3]": {"biological_target": "SARS-COV-2 Spike(S) protein with an inactivated furin site, on HEK293-Spike cells (293-SARS2-S-dfur, (SARS-CoV-2) (UniProt P0DTC2))"}, "[4]": {"biological_target": "SARS-Cov2 Spike Active Trimer SAT (R&D Systems; Catalog No. 10549-CV) (SARS-CoV-2) (UniProt P0DTC2)", "assay": "SPR (Biacore)"}, "[5]": {"biological_target": "SARS-Cov2 Spike Active Trimer SAT (R&D Systems; Catalog No. 10549-CV) (SARS-CoV-2) (UniProt P0DTC2)", "assay": "SPR (Carterra)"}, "[6]": {"biological_target": "SARS-Cov2 Spike Active Trimer SAT (R&D Systems; Catalog No. 10549-CV) (SARS-CoV-2) (UniProt P0DTC2)", "assay": "ELISA, serially diluted purified Nb-Fc against SAT antigen"}},
  "note": "Read-outs that look alike come from different tables or passages of the source.",
  "data": [
    {"substance": "human SAT Nb-Fc control VH-Ab-8 (HAb8-S) (Fc fusion)", "values": [
      {"measurement": "Kd", "setting": "[1]", "value": 19.8, "unit": "nM"},
      {"measurement": "Response", "setting": "[2]", "value": 0.489},
      {"measurement": "koff", "setting": "[2]", "value": 0.00294, "unit": "s⁻¹"},
      {"measurement": "kon", "setting": "[2]", "value": 149000, "unit": "M⁻¹ s⁻¹"},
      {"measurement": "GMFI (HEK293-Spike)", "setting": "[3]", "value": 430},
      {"measurement": "GMFI Ratio over No 1st Ab control (HEK293-Spike)", "setting": "[3]", "value": 21.1},
      {"measurement": "Kd", "setting": "[4]", "value": 5.7, "unit": "nM"},
      {"measurement": "Kd", "setting": "[5]", "value": 37.3, "unit": "nM"},
      {"measurement": "EC50", "setting": "[6]", "value": 0.018, "unit": "nM"}
    ]}
  ]
}
